Data published in publication PMC7498355, “A quantitative binding model for the Apl protein, the dual purpose recombination-directionality factor and lysis-lysogeny regulator of bacteriophage 186”.

What was measured:
Conditions in all cases: protein: recombinant; label: 32P end label on one strand; blunt
Apl [1] = molecular target: T1, Apl (bacteriophage 186, UniProt P21681 1-87); experiment: EMSA; up to 6400 nM Apl; EMSA: 50 mM Tris-HCl pH 7.5, 0.1 mM EDTA, 10% glycerol, 150 mM NaCl, on ice >=30 min, gel at 4 C; bending in TEG 50; footprint: same Tris/EDTA/glycerol with 75
T1 sequence: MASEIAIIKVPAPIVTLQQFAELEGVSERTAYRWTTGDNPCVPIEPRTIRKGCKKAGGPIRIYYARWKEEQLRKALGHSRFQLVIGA

Apl [2] = molecular target: T1, Apl; experiment: EMSA; pattern similar to central five pR-pL operators; EMSA: 50 mM Tris-HCl pH 7.5, 0.1 mM EDTA, 10% glycerol, 150 mM NaCl, on ice >=30 min, gel at 4 C; bending in TEG 50; footprint: same Tris/EDTA/glycerol with 75
Apl [3] = molecular target: T1, Apl; experiment: EMSA; apparent Kd (50% DNA unbound); EMSA: 50 mM Tris-HCl pH 7.5, 0.1 mM EDTA, 10% glycerol, 150 mM NaCl, on ice >=30 min, gel at 4 C; bending in TEG 50; footprint: same Tris/EDTA/glycerol with 75
Apl [4] = molecular target: T1, Apl; experiment: EMSA; two retarded bands; EMSA: 50 mM Tris-HCl pH 7.5, 0.1 mM EDTA, 10% glycerol, 150 mM NaCl, on ice >=30 min, gel at 4 C; bending in TEG 50; footprint: same Tris/EDTA/glycerol with 75
Apl [5] = molecular target: T1, Apl; experiment: EMSA; multiple shifted species; EMSA: 50 mM Tris-HCl pH 7.5, 0.1 mM EDTA, 10% glycerol, 150 mM NaCl, on ice >=30 min, gel at 4 C; bending in TEG 50; footprint: same Tris/EDTA/glycerol with 75

B1: Apl 101 (dsDNA)
DNA 1: TGATGGCAAGTGTCTTAGGACAGAGTCAAATCA
DNA 2: TGATTTGACTCTGTCCTAAGACACTTGCCATCA
binding result (Apl [1]): no binding

B2: attP 5 (dsDNA)
DNA 1: ATCATTGACATAGATTGCCATTGTTTGCCAATAATTACCTATTATTCGCCATTTC
DNA 2: GAAATGGCGAATAATAGGTAATTATTGGCAAACAATGGCAATCTATGTCAATGAT
binding result (Apl [2]): binds

B3: Apl 10101 (dsDNA)
DNA 1: AACCCACGCAATTGACTTAGGGTGTTGGCAAACAGCTTAGGATCAATTGCAAACTT
DNA 2: AAGTTTGCAATTGATCCTAAGCTGTTTGCCAACACCCTAAGTCAATTGCGTGGGTT
binding result (Apl [1]): no binding

B4: Apl 2 (two pR-pL operators) (dsDNA)
DNA 1: TTGATGGCAAGTGTTGGCAAACAG
DNA 2: CTGTTTGCCAACACTTGCCATCAA
binding result (Apl [1]): no binding

B5: Apl 7 (dsDNA)
DNA 1: TATTTTGGCTAAACCCACGCAATTGATGGCAAGTGTTGGCAAACAGAGTCAAATCAATTGCAAACTTTGGCTAATAGG
DNA 2: CCTATTAGCCAAAGTTTGCAATTGATTTGACTCTGTTTGCCAACACTTGCCATCAATTGCGTGGGTTTAGCCAAAATA
Kd (Apl [3]): ~275 nM

B6: Apl 3 (111) (dsDNA)
DNA 1: TTGATGGCAAGTGTTGGCAAACAGAGTCAAATCA
DNA 2: TGATTTGACTCTGTTTGCCAACACTTGCCATCAA
Kd (Apl [3]): ~800 nM

B7: Apl 1101 (dsDNA)
DNA 1: AACCCACGCAATTGATGGCAAGTGTCTTAGGACAGAGTCAAATCA
DNA 2: TGATTTGACTCTGTCCTAAGACACTTGCCATCAATTGCGTGGGTT
binding result (Apl [1]): no binding

B8: Apl 4 (dsDNA)
DNA 1: TTGATGGCAAGTGTTGGCAAACAGAGTCAAATCAATTGCAAACTT
DNA 2: AAGTTTGCAATTGATTTGACTCTGTTTGCCAACACTTGCCATCAA
binding result (Apl [4]): binds

B9: Apl 6 (dsDNA)
DNA 1: TATTTTGGCTAAACCCACGCAATTGATGGCAAGTGTTGGCAAACAGAGTCAAATCAATTGCAAACTT
DNA 2: AAGTTTGCAATTGATTTGACTCTGTTTGCCAACACTTGCCATCAATTGCGTGGGTTTAGCCAAAATA
binding result (Apl [5]): binds

B10: Apl 5 (dsDNA)
DNA 1: AACCCACGCAATTGATGGCAAGTGTTGGCAAACAGAGTCAAATCAATTGCAAACTT
DNA 2: AAGTTTGCAATTGATTTGACTCTGTTTGCCAACACTTGCCATCAATTGCGTGGGTT
binding result (Apl [4]): binds
